From patent publication US20120213844A1 (ALZA, published 2012) come the findings set out here.

The labels stand for the following.
B1: phage clone displaying SEQ ID NO: 49 (S20 hit) (peptide)
chain: GGGLLCATTSFRDWFVCFTGGGSGGSGG
notes: pIX phagemid display, library S20; not shown: M13 phage coat protein pIX (MSVL...)
B2: phage clone displaying SEQ ID NO: 45 (S20 hit) (peptide)
chain: GGGDSCCSFLTDGTVVCSLGGGSGGSGG
notes: as for B1
B3: phage clone displaying SEQ ID NO: 47 (S20 hit) (peptide)
chain: GGGSVCVGTAFPGWMVCGPGGGSGGSGG
notes: as for B1
B4: phage clone displaying SEQ ID NO: 43 (S20 hit) (peptide)
chain: GGGPTCDSATRRVLTICADGGGSGGSGG
notes: as for B1
B5: phage clone displaying SEQ ID NO: 46 (S20 hit) (peptide)
chain: GGGYICTPSDIDSWYICYLGGGSGGSGG
notes: as for B1
B6: phage clone P176 (SEQ ID NO: 48) (peptide)
chain: GGGKTCVSTTFDLWFVCFAGGGSGGSGG
notes: pIX phagemid display, library S20; also called PP176; not shown: M13 phage coat protein pIX (MSVL...)
B7: phage clone displaying SEQ ID NO: 44 (S20 hit) (peptide)
chain: GGGWMCFLEGYGASLMCQCGGGSGGSGG
notes: as for B1
B8: phage clone displaying SEQ ID NO: 15 (S15 hit) (peptide)
chain: GGGNWFSLPTLLCFPLNPGGGSGGSGG
notes: pIX phagemid display, library S15; not shown: M13 phage coat protein pIX (MSVL...)
B9: phage clone displaying SEQ ID NO: 12 (S15 hit) (peptide)
chain: GGGVSGILPILVCHPAATGGGSGGSGG
notes: as for B8
B10: phage clone displaying SEQ ID NO: 17 (S15 hit) (peptide)
chain: GGGPIDDESLPVLYCVTSGGGSGGSGG
notes: as for B8
B11: phage clone P175 (SEQ ID NO: 13) (peptide)
chain: GGGLPDDSLPELICKVRGGGGSGGSGG
notes: pIX phagemid display, library S15; also called PP175; not shown: M13 phage coat protein pIX (MSVL...)
B12: phage clone displaying SEQ ID NO: 10 (S15 hit) (peptide)
chain: GGGYRLFVDESIFFCTRLGGGSGGSGG
notes: as for B8
B13: phage clone displaying SEQ ID NO: 20 (S15 hit) (peptide)
chain: GGGTVFTLPELVCVVAGTGGGSGGSGG
notes: as for B8
B14: phage clone displaying SEQ ID NO: 19 (S15 hit) (peptide)
chain: GGGGADTLPDLLCWESSLGGGSGGSGG
notes: as for B8
B15: phage clone displaying SEQ ID NO: 16 (S15 hit) (peptide)
chain: GGGSTITSLPTLQCWPILGGGSGGSGG
notes: as for B8
B16: phage clone displaying SEQ ID NO: 18 (S15 hit) (peptide)
chain: GGGPIFSSLPVLYCTSQLGGGSGGSGG
notes: as for B8
B17: phage clone displaying SEQ ID NO: 14 (S15 hit) (peptide)
chain: GGGHVSLQSLPELICVVSGGGSGGSGG
notes: as for B8
B18: phage clone displaying SEQ ID NO: 21 (S15 hit) (peptide)
chain: GGGLPDLICAVDSGTSGAGGGSGGSGG
notes: as for B8
B19: phage clone displaying SEQ ID NO: 11 (S15 hit) (peptide)
chain: GGGELGLPTLLCWPTDTLGGGSGGSGG
notes: as for B8
B20: phage clone P177 (SEQ ID NO: 52) (peptide)
chain: GGGDACTMVFLWCSLGGGSGGSGG
notes: pIX phagemid display, library S16; also called PP177; not shown: M13 phage coat protein pIX (MSVL...)
B21: phage clone P174 (SEQ ID NO: 51) (peptide)
chain: GGGSGCLDALWQCVYGGGSGGSGG
notes: pIX phagemid display, library S16; also called PP174; not shown: M13 phage coat protein pIX (MSVL...)
B22: phage clone P178 (SEQ ID NO: 53) (peptide)
chain: GGGRWCYFWWITICELGGGSGGSGG
notes: pIX phagemid display, library S17; also called PP178; not shown: M13 phage coat protein pIX (MSVL...)
B23: phage clone P173 (SEQ ID NO: 31) (peptide)
chain: GGGTDCVIFGLETYCLRGGGSGGSGG
notes: pIX phagemid display, library S18; also called PP173; not shown: M13 phage coat protein pIX (MSVL...)
B24: phage clone displaying SEQ ID NO: 32 (S18 hit) (peptide)
chain: GGGSDCVLFGSKLFCSAGGGSGGSGG
notes: pIX phagemid display, library S18; not shown: M13 phage coat protein pIX (MSVL...)
B25: phage clone displaying SEQ ID NO: 30 (S18 hit) (peptide)
chain: GGGAYCSFVAGDLVCQVGGGSGGSGG
notes: as for B24
B26: phage clone displaying SEQ ID NO: 33 (S18 hit) (peptide)
chain: GGGTDCVRFGETIYCIVGGGSGGSGG
notes: as for B24
B27: phage clone displaying SEQ ID NO: 26 (S18 hit) (peptide)
chain: GGGKHCILFEKTVYCAKGGGSGGSGG
notes: as for B24
B28: phage clone displaying SEQ ID NO: 27 (S18 hit) (peptide)
chain: GGGDSCIQFANLLYCAIGGGSGGSGG
notes: as for B24
B29: phage clone displaying SEQ ID NO: 29 (S18 hit) (peptide)
chain: GGGRACITFGKVVYCEVGGGSGGSGG
notes: as for B24
B30: phage clone displaying SEQ ID NO: 35 (S18 hit) (peptide)
chain: GGGRGCVVFGDNIYCIVGGGSGGSGG
notes: as for B24
B31: phage clone displaying SEQ ID NO: 23 (S18 hit) (peptide)
chain: GGGAGCIAFVDVVYCARGGGSGGSGG
notes: as for B24
B32: phage clone displaying SEQ ID NO: 34 (S18 hit) (peptide)
chain: GGGYDCVSFGAVAYCPQGGGSGGSGG
notes: as for B24
B33: phage clone displaying SEQ ID NO: 28 (S18 hit) (peptide)
chain: GGGTDCIRFGVLWYCLVGGGSGGSGG
notes: as for B24
B34: phage clone displaying SEQ ID NO: 25 (S18 hit) (peptide)
chain: GGGRDCIIFDKTVYCVIGGGSGGSGG
notes: as for B24
B35: phage clone displaying SEQ ID NO: 24 (S18 hit) (peptide)
chain: GGGAKCIAFGNSVYCLNGGGSGGSGG
notes: as for B24
B36: phage clone P179 (SEQ ID NO: 39) (peptide)
chain: GGGGPCVLIRDYYLLCLEGGGSGGSGG
notes: pIX phagemid display, library S19; also called PP179; not shown: M13 phage coat protein pIX (MSVL...)
B37: phage clone displaying SEQ ID NO: 38 (S19 hit) (peptide)
chain: GGGYDCMIRADGSLICWCGGGSGGSGG
notes: pIX phagemid display, library S19; not shown: M13 phage coat protein pIX (MSVL...)
B38: phage clone displaying SEQ ID NO: 41 (S19 hit) (peptide)
chain: GGGCDCREAVSASLVCRYGGGSGGSGG
notes: as for B37
B39: phage clone displaying SEQ ID NO: 40 (S19 hit) (peptide)
chain: GGGAFCRLDFNQWLTCLVGGGSGGSGG
notes: as for B37
B40: phage clone P180 (SEQ ID NO: 37) (peptide)
chain: GGGMICYLVDSGNIICYKGGGSGGSGG
notes: pIX phagemid display, library S19; also called PP180; not shown: M13 phage coat protein pIX (MSVL...)
B41: P190-DOXIL (peptide)
peptide: DPCTWEVWGRECLQ
modifications: disulfide 3-12 (inferred); not fully specified (N-terminus); also: inserted into doxorubicin-loaded liposomes
B42: P190-MMB construct 4316 (Fc fusion)
chain: GGDPCTWEVWGRECLQGGGGSGGGGSGGGGSGGGGSCPPCPAPEAAGGPSVFLFPPKPKDTLMISRTPEVTCVVVDVSQEDPEVQFNWYVDGVEVHNAKTKPREEQFNSTYRVVSVLTVLHQDWLNGKEYKCKVSNKGLPSSIEKTISKAKGQPREPQVYTLPPSQEEMTKNQVSLTCLVKGFYPSDIAVEWESNGQPENNYKTTPPVLDSDGSFFLYSRLTVDKSRWQEGNVFSCSVMHEALHNHYTQKSLSLSLGK
notes: Human IgG4 hinge-CH2-CH3 with two Leu to Ala
B43: phage displaying P190 on pIX (SEQ ID NO: 55) (peptide)
chain: GGGDPCTWEVWGRECLQGGGSGGSGG
notes: pIX phagemid display, library S18; on average one peptide per particle; also called PHPEP190; pIX-190; not shown: M13 phage coat protein pIX (MSVL...)

Positions of bridges follow the written chain, without caps; N, C: chain ends. No end group written: not given here.

One experiment deals with T1, sEGFR-MMB (dimeric sEGFR mimetibody) (human).
T1 construct: Disulfide-linked homodimer: QIQ, sEGFR, flexible linker, J segment, human IgG1 hinge, CH2, CH3; also called sEGFR-Fc; dimeric EGFR
T1 sequence (chain, as listed by the source limits assumed): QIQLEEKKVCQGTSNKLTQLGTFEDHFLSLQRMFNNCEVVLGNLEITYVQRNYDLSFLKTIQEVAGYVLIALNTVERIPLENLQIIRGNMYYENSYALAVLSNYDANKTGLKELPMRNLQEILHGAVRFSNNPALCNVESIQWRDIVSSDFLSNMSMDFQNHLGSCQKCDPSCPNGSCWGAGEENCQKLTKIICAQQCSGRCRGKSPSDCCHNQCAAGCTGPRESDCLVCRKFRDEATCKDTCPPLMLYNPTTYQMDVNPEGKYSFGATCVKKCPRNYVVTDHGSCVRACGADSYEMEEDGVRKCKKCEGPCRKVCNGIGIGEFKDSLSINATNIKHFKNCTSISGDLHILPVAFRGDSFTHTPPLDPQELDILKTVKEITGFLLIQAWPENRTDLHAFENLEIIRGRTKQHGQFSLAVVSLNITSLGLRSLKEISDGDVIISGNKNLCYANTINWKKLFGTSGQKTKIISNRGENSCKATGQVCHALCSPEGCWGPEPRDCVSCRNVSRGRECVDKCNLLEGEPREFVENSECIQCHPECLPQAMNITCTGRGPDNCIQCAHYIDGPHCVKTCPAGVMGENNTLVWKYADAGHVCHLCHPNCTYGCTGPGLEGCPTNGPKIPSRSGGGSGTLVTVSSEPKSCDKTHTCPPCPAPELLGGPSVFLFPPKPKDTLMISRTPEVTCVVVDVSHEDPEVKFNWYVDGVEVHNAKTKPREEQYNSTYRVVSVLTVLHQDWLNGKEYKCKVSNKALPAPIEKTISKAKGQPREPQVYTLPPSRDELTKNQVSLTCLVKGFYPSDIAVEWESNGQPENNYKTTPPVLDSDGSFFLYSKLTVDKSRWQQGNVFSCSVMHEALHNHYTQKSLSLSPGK
Nature of the experiment: phage ELISA on coated sEGFR-MMB, chemiluminescence (background typically <200 units). Background: An ELISA detects its analyte on a solid surface through an enzyme-linked reagent.
Description: (§1) The protein solution was removed and wells were rinsed twice with Tris-Buffered Saline containing 0.05% Tween-20 (TBS-T) using a plate washer (Embla). The wells were blocked with Starting Block in TBS for 1 hr at room temperature and rinsed twice with TBS-T. An equal volume of phage supernatant and Starting Block in TBS were incubated in the wells for 1 hr at room temperature, and the wells were rinsed five times with TBS-T. Anti-M13/horseradish peroxidase conjugate (Amersham), diluted 1:5000 in Starting Block in TBS, was added into the wells and incubated for 1 hour at room temperature, and then the wells were rinsed five times with TBS-T. Finally, chemiluminescent peroxidase substrate (Roche) was added to the wells, and chemiluminescence was measured on a Tecan plate reader.
For the molecule B1, the ELISA turned out to be 4510 units. On the same count and under the same terms, in the case of B2 it was 9540 units. In turn, B3 yielded an ELISA of 4770 units. Still for that read-out and setting: in the case of B4 it was 5420 units; in that of B5, 6620 units. Turning to B6, the ELISA stood at 37400 units. On the same count and under the same terms, in the case of B7 it was 4800 units.

Another experiment has as its target T1, sEGFR-MMB (dimeric sEGFR mimetibody). The experiment is described as above. This is another data set of the same source.
Description: as §1
On to B8, for which the ELISA turned out to be 3670 units. On the same count and under the same terms, in the case of B9 it was 1110 units; in that of B10, 1780 units; in that of B11, 6790 units. In turn, B12 showed an ELISA of 3080 units.

With B13, the ELISA was 1520 units. B14 yielded an ELISA of 5720 units. B15 showed an ELISA of 13300 units. Still for that read-out and setting: in the case of B16 it was 1420 units; in that of B17, 1360 units; in that of B18, 1160 units.

Molecule B19 had an ELISA of 9380 units.

Another experiment has the same target. The experiment is described as above. This is another data set of the same source.
Description: as §1
Regarding B20, the ELISA worked out at 8660 units. On the same count and under the same terms, in the case of B21 it was 34600 units; in that of B22, 7910 units.

For a further experiment, the target named is T2, Control-MMB (CNTO 360) (Homo sapiens (Human), UniProt P0DOX5 111-449 = IgG part).
T2 construct: MMB scaffold without a peptide; described as human IgG1 heavy chain dimer lacking the variable and most of the CH1 domains; also called blank mimetibody scaffold protein
Description: phage ELISA on coated Control-MMB in the presence of EGF [panel B].
Description: as §1
(§2) Confirmatory Phage ELISA. […] The binding reaction was incubated for 1 hr at room temperature, and then bound phage were detected with anti-M13/HRP as above. For ELISAs with biotinylated receptors, streptavidin at 5 μg/ml was coated in the wells overnight at 4° C. […] The wells were rinsed with TBS-T and then blocked with Starting Block. Bound phage were washed and detected with anti-M13/HRP as described above.
On to B6, for which the binding result is listed as “no binding”.

In another experiment the target is T1, sEGFR-MMB (dimeric sEGFR mimetibody). Description: phage ELISA on coated sEGFR-MMB, chemiluminescence (background typically <200 units). The source holds these as a separate data set.
Description: as §1
For the molecule B23, the ELISA was 37900 units. Still for that read-out and setting: in the case of B24 it was 35300 units; in that of B25, 19800 units.

In the case of B26, the ELISA turned out to be 13300 units. The molecule B27 gave an ELISA of 9110 units. Same read-out and setting: in the case of B28 it was 53200 units. Same read-out and setting: in the case of B29 it was 30700 units; in that of B30, 22000 units. On the same count and under the same terms, in the case of B31 it was 6380 units; in that of B32, 3200 units.

In turn, B33 showed an ELISA of 4750 units. The same measure, in the same setting: in the case of B34 it was 17100 units; in that of B35, 31500 units.

The next experiment shares this target. Described as above. The source holds these as a separate data set.
Description: as §1
Consider B36, for which the ELISA was 14000 units. Still for that read-out and setting: in the case of B37 it was 1290 units; in that of B38, 3350 units. Same read-out and setting: in the case of B39 it was 2580 units; in that of B40, 8810 units.

The next experiment addresses T3, human EGFR on tumor cells (human, UniProt P00533 25-1210). Nature of the experiment: cell-based or functional assay.
For B41, the “IC50 D4, cell killing of MDA-MB-468 cells (1 h treatment, 4 days)” value worked out at 120 µg/mL and the “IC50 D6, cell killing of MDA-MB-468 cells (1 h treatment, 6 days)” value turned out to be 35 µg/mL.

The next experiment concerns the target T4, Streptavidin.
T4 construct: also called Streptavidin alone; SA
Description: phage ELISA on streptavidin-coated wells without receptor [panel C].
Description: as §1, §2
As to B6, the binding result is “no binding”.

The target in the next experiment is T3, human EGFR on tumor cells. Nature of the experiment: flow cytometry on A431 cells, without EGF. On the technique in general: A flow cytometer gives signals particle by particle.
As to B42, the “fold increase in FACS signal” value is approximately 10 fold.

For the next experiment, the target named is T2, Control-MMB (CNTO 360). Nature of the experiment: phage ELISA, Control-MMB coated at 5 ug/ml.
Description: The plates were held overnight at room temperature, washed twice with TBST (0.5M Tris Base, 9% NaCl, 0.05% tween, pH 7.6), and loaded with 200 μL per well of Starting Block (Pierce). […] The plates were held at room temperature for 1.5 hours for blocking. Plates were then washed twice with TBST and phage were added. The phage solutions were crude phage supernatant from overnight cultures diluted four-fold with Starting Block. After a one-hour incubation, the plates were washed thrice with TBST and 100 μL of a 1:5000 dilution of phage binding antibody conjugate (α-M13-HRP) was added to the wells. […] After a one-hour incubation the plates were washed five times with TBST, 100 μL of POD (BM Chemiluminescence ELISA substrate; Roche Applied Science) was added, and chemiluminescene recorded.
B43: the binding result is given as “no binding”.
